Mean length in subunits of circular polymers without a detectable M component, mean length in subunits of linear polymers without a detectable M component and Kd data for 2 molecules are collected here from PMC7453904, “Intrahepatic heteropolymerization of M and Z alpha-1-antitrypsin” (JCI Insight, 2020).

Experiment [1] concerns the target Z A1AT subunit of MZ heterozygote liver polymers (human (endogenous in liver tissue)). The experiment is described as follows: negative-stain electron microscopy of liver polymers; polymers formed in vivo, extracted from inclusion bodies of explant liver and purified; imaged with and without Fab2H2, which marks M subunits; subunits counted.
The target in experiment [2] is T1, plasma-purified monomeric native M alpha-1-antitrypsin (Homo sapiens (Human)., UniProt P01009).
T1 construct: Plasma glycoprotein; also called M A1AT; native M A1AT
As to the kind of experiment: SPR; Biacore T100; mAb2H2 amine-coupled to a CM5 chip; A1AT analytes 0–2 μM in PBS with 0.05% v/v Tween-20 at 30 μL/min; maximal responses fit by a hyperbolic function. The conditions noted are these: both partners purified. A general note: SPR reads the build-up and loss of mass on a sensor chip optically.

The Kd is the constant that tells how readily two partners part at equilibrium. Higher therefore signals weaker binding.

T1 sequence (P01009 25-418): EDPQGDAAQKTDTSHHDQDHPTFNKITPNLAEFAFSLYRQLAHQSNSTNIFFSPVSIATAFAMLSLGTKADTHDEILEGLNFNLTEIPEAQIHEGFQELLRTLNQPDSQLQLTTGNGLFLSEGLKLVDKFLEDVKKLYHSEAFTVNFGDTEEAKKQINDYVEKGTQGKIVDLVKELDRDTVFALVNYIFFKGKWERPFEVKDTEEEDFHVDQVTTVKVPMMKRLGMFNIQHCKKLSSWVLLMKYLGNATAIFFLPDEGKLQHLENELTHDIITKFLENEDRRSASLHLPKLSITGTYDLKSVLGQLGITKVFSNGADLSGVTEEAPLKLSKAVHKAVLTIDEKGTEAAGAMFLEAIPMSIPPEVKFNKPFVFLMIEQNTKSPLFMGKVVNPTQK

Take “Z A1AT subunit of MZ heterozygote liver polymers (natural protein)”: in experiment [1], the mean length in subunits of circular polymers without a detectable M component was 6.6 subunits and the mean length in subunits of linear polymers without a detectable M component came out at 6.5 subunits.

B1: monoclonal antibody mAb2H2 (antibody, V domains shown)
VH: EVQLEESGGGLVKPGGSLKLSCAASGFAFSIYDMSWVRQTPEKRLEWVAYISSGGGTTYYPDTVKGRFTISRDNAKNTLYLQMSSLKSEDTAIYYCARHAGVHYWGQGTTLTVSS
VL: DIVMTQSPSSMYASLGERVTITCKASQDINSYLSWFQQKPGKSPKNLIYRANRLVDGVPSRFSGSGSGQDYSLTISSLEYEDMGIYYCLQYDEFPWTFGGGTKLESK
notes: Whole mouse monoclonal antibody; Raised against heat-induced and denaturant-induced polymers of plasma A1AT; also called clone 2H2; source: hybridoma from splenocytes of immunized BALB/c mice; in culture medium (screen) and purified (HiTrap Protein G)
In experiment [2], B1 yielded a Kd of 447 nM.
